Experimental data published in patent US20230322880A1 (MEDIKINE, published 2023).
Where no end group is shown, it is not given here.

Molecular target: T1, IL-7Rα-Fc (CD127 protein, Fc tag; ECD 21-236; ACRObiosystems, Inc, Cat. #ILA-H5258) (human, UniProt P16871 21-236)
T1 construct: range 21-236; also called hu-IL-7Rα subunit; not shown: Fc tag of the purchased protein
T1 sequence (looked up): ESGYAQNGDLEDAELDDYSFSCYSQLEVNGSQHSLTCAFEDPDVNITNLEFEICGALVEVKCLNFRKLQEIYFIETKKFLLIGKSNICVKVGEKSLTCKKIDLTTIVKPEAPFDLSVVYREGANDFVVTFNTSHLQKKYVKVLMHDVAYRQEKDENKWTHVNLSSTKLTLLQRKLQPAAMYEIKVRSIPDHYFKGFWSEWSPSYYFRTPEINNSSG
Assay: competition binding ELISA, plate-coated receptor, biotinylated reference peptide::NA-HRP tracer
Experimental: Binding of the synthetic IL-7Rα ligands to IL-7Rα was evaluated using a competition binding ELISA. Microtiter plate wells were coated with IL-7Rα-Fc (CD127 protein, Fc tag; ECD 21-236; ACRObiosystems, Inc, Cat. #ILA-H5258) at 1 μg/mL; 50 μL per well in PBS for at least 1 h. The plate was washed once with wash buffer (200 μL, PBS containing 0.05% Tween®-20 (Sigma). Wells were blocked with blocking buffer (PBS containing 1% BSA (BSA Fraction V; VWR Cat. No. 97061-416) for 1 h. A serial dilution of the peptides was prepared, at twice the final concentration, in assay buffer (PBS containing 0.5% BSA and 0.05% Tween®-20) in a 96-well polypropylene plate. A terminal biotinylated form of the reference IL-7Rα peptide ligand having SEQ ID NO: 300 ([…]) was used to make a precomplex with NeutrAvidin-HRP (NA-HRP; ThermoFisher Cat. No. 31030) (Precomplex referred to as bnPeptide::NA-HRP). The bnPeptide::NA-HRP precomplex was prepared by mixing 1.5 μL 100 μM biotinylated peptide, 2 μL NA-HRP and 11.5 PBS and incubated at 4° C. for at least 45 min. After blocking the wells, the plate was washed with a plate washer and serial dilutions of the peptides were added (50 μL/well) and the plate was incubated at 4° C. for 1 h on a plate shaker. […] Fifty (50) μL of a solution (Surmodics Cat. #LSTP-0100-0) was then added and the plate read at 450 nm. […]

B1: IL-7Rαγc ligand having SEQ ID NO: 30 (peptide)
peptide: GWGIPWCTLDPGSLQCAWLGKHGGGGSGGVVCQDWEGVELCWQGG
modifications: disulfide (positions not given here); also: two disulfide bridges, pairing not given here
binding result: binds
